From paper PMC7354515 (Viruses, 2020)

What was measured:
[1] = biological target: CuV VP2 (CuV capsid, virus-like particle) (Cutavirus, UniProt A0A1B0VEZ1); test: glycan microarray (CFG v5.[…]), DyLight 488-labelled VLPs; format: binding; details: immobilised glycan; PBS/Tween-20, room temperature; weak signal, authors advise caution
[2] = biological target: Cutavirus (CuV) VP2, assembled as virus-like particles (cutavirus (CuV)); test: cryo-EM structure
[3] = biological target: Tusavirus (TuV) VP2, assembled as virus-like particles (tusavirus (TuV)); test: cryo-EM structure

CC(=O)N[C@H]1C(O)O[C@H](CO)[C@@H](O[C@@H]2O[C@H](CO)[C@H](O)[C@H](O)[C@H]2O)[C@@H]1O[C@@H]1O[C@@H](C)[C@@H](O)[C@@H](O)[C@@H]1O (stereo partly drawn) [LeX]
glycan microarray (CFG v5.2), DyLight 488-labelled VLPs [1]: the minimal LeX motif was weakly bound by CuV

Cutavirus (CuV) VP2, assembled as virus-like particles (natural protein)
stoichiometry N [2]: 60

Tusavirus (TuV) VP2, assembled as virus-like particles (natural protein)
stoichiometry N [3]: 60
